Experimental data published in the RNAGym collection of RNA variant scans (doi:10.1073/pnas.2313332121).
Variants at the floor of the assay were thinned out.

B1: TPR 5TU (parent)
chain: GGAUCUUCUCGAUCUAACAAAAAAGACAAAUCUGCCACAAAGCUUGAGAGCAUCUUCGGAUGCAGAGGCGGCAGCCUUCGGUGGCGCGAUAGCGCCAACGUUCUCAACUAUGACACGCAAAACGCGUGCUCCGUUGAAUGGAGUUUAUCAUG

Variants of: B1
Experiment: polymerase ribozyme fitness, log enrichment relative to wild type (log ratio); higher = more active; in vitro selection for triplet polymerase activity
In short: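 Fitness is a logarithmic measure of how a genotype enriched relative to the wild type, with replicate averages weighted by inverse variance. The logarithm uses base 2, and enrichment came from Illumina sequencing of input and output libraries. Those libraries were PCR-built, transcribed mutants of each subunit of a heterodimeric triplet polymerase ribozyme, passed through one triplicate in vitro selection round that included frozen incubation at −7 °C, gel excision of extended constructs and streptavidin-bead capture. Genotypes were kept only if they had ≥10 input reads and ≥1 read per output.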

Point of comparison: A3U G25C C38U C85A C116A C123U, “polymerase ribozyme fitness (log ratio)” value -2.27. Against it:
- A3U U15G C51A G84U U151G — lower, ≤ -4.2
- A3U C51U U56G G58C G59A A73G — lower, -3.64
- A3U C5A U15C A19G C57G C118G G136A G141C A142C — lower, ≤ -4.2
- A3G U4G U15A C27U C38A C57G G92A A119U — lower, ≤ -4.2
- A3G A17U A60U — higher, -1.21
- A3G A147U — higher, 1.09
- A3U C18U A20C A30C A41C C69U G94A C103G — lower, ≤ -4.2
- A3U C36U U56G A60C U61G C79U C93U C99U G112C U144A A150C — lower, ≤ -4.2
- A3U G81C — higher, -0.0386
- A3U G62U G94A — higher, -1.08
- U4A C43U G65U U77C U111G — lower, ≤ -4.2
- U4A A17C G59C A119G — higher, -0.404
- A3G A16U U53A C75U G92U — lower, -3.54
- A3G C87U C132G — lower, -4.07
- A3C U4A — higher, 0.257
- A3U C5G A19U C36U G83A — lower, -3.1
- U4A A49G G50C A66C C76G C93U — lower, ≤ -4.2
- A3U U145C — higher, -0.205
- A3U U61G C95U — higher, -1.39
- A3U C36U C95U — lower, -3.09
- A3G C10G A41G C76A U145A — lower, ≤ -4.2
- A3U A30G C35G A39U G59A A60C C87U U134A — lower, ≤ -4.2
- A3G A23C C75A G88A C99G C108U G143C — lower, ≤ -4.2
- U4A C132G U139G — lower, -3.71
- A3G A41U A47G U101G G136U — lower, ≤ -4.2
- A3U U4G U55A A119C — higher, -1.29
- A3C G70C C87G C96G A107G U146G — lower, ≤ -4.2
- A3U C14G G50C C85U G88A — lower, ≤ -4.2
- U4A C14G A40G — lower, -3.69
- A3U A17U U56A G83U C93G C96G C125G G136C — lower, ≤ -4.2
- U4A G65A C85U A97U — within 0.2 log units, -2.2
- A3U C36U G67U C95A — lower, ≤ -4.2
- A3U A19U C57U G62U C69U C85U C99G U130C G136U U146G — lower, ≤ -4.2
- A3U A12G C87G — lower, -4.02
- U4A U15G C87U — higher, 0.183
- U4A C57A C75G U134G — lower, ≤ -4.2
- A3U A30G U104C C105A C114G A115G A122G C129A — lower, ≤ -4.2
- A3U G83A C118G A142C — lower, -3.66
- U4A C38U A40U G42U A73G U82C G94U A107G — lower, ≤ -4.2
- A3U C35U C54A C85G — lower, ≤ -4.2
- A3G G84A A98U — higher, -1.36
- A3U C51U C95U — higher, -1.09
- U4A C96A A98C A115U A142U G152C — lower, ≤ -4.2
- A3U C8A C18U A47C A49U C93U U102G A107G G133U — lower, ≤ -4.2
- U4A C51G G84A A106U C118A — lower, ≤ -4.2
- A3U U53A G84U A138G G152A — lower, ≤ -4.2
- A3C U56G C57G C116G — lower, -2.89
- A3C U4A U6C U15C A17G C38U C54U C72U G86U U127G — lower, ≤ -4.2
- A3U C35G C93U G100A C105G G133C — lower, ≤ -4.2
- U4A U6A C36U C57G G68U C79G A91C — lower, ≤ -4.2
- A3U C38A C87U C95U G128C — lower, ≤ -4.2
- U4A C5G C8G U9G U53A C54A C72A C79A C85U A115C U139A G140C — lower, ≤ -4.2
- A3C U4A U56G C57U C132A — lower, -4.08
- A3G A19U U55C G84A — higher, -0.956
- A3G C116U G124A A142G — lower, -2.6
- U4A A21U C38U C85A C87G C103A — lower, ≤ -4.2
- A3U A22G C43U G68A U78G G92A A107U A110G A113G U151C — lower, ≤ -4.2
- U4A A39C U53A C96U C108U A120U C125U — lower, ≤ -4.2
- A3C U7A G84U U144G — within 0.2 log units, -2.38
- A3G U4A C54U U102G C125G — lower, -3.99
- A3U A20C G58C A73U G81A A147C — lower, ≤ -4.2
- A3U A30U G86U C87U — lower, ≤ -4.2
- A3U G94A — higher, -1.21
- A3G C93U — higher, -1.78
- A3U A22C C87A G92U — higher, -0.18
- U4A C35G G46A C75G G94C C105G — lower, ≤ -4.2
- A3U C76U G124C G141C — lower, -3.96
- A3G G11C C87A A91U A137G — lower, ≤ -4.2
- A3G U6A A39U G84U U134A U144C A150U — lower, ≤ -4.2
- A3U C14G A30U U55G C95U — lower, ≤ -4.2
- A3U G46A A113U — lower, -3.1
- A3G C14G U61G G71A G86C A91C C105G C114G G143A U145A — lower, ≤ -4.2
- A3U G11A C14G U53C C76G G117U — lower, ≤ -4.2
- A3U G25U C27U C36A C87U C105G C118U G152C — lower, ≤ -4.2
- A3C U90A — lower, -4.17
- A3U U82C U101A — higher, -0.128
- A3C G58C C95G C129A A142C — lower, ≤ -4.2
- A3C U4A A121G G141A A142C — lower, -4.03
- A3G G71U C96A A107G C116U C125G — lower, ≤ -4.2
- A3U C51A G124C — lower, -2.87
- A3G U82G C96U U148A — lower, -4.17
- A3U A28C C63U C85U A142C G152U — lower, -3.91
- U4A C38U C57A A66G C96G C105A C123G G124A C129G — lower, ≤ -4.2
- A3G C87U — higher, -0.743
- A3C U44G U56A G84C — lower, ≤ -4.2
- A3G C18U C27G A28U U78A — lower, ≤ -4.2
- A3G C63U A73G G86U U135A — lower, -3.75
- A3U G83C — higher, -0.632
- A3U G83A — higher, -1.47
- A3U A47C C57A — higher, -0.307
- U4A G11C A20U A28U G143U U146G — lower, ≤ -4.2
- A3U A16U C54U U55A C85U A98C C99U C129G G152U — lower, ≤ -4.2
- A3G U7G G46A A47U C51U G94C C125U G143A — lower, ≤ -4.2
- A3U U31G C36U C96A — lower, -2.99
- U4A C5U C32A C54U G58A A73G G84A A91G A121U C125U U145C U146C — lower, ≤ -4.2
- A3U A28C G84A G117U A119U G124U — lower, ≤ -4.2
- A3U A23U C96U — lower, ≤ -4.2
- U4A A41C G126C — higher, -1.9
- A3G U9G A16G A21C G84A G133C G141A — lower, ≤ -4.2
- U4A G50A U82G U134C — within 0.2 log units, -2.39
- A3G A39U G59C G83U — lower, -3.56
- A3U C35A C43A A52G G88A C108G — lower, ≤ -4.2
- A3U C18A A22U A37G C85U — lower, -3.29
- A3U C8U C14G A19C U33A A52C G70A C79G C87G G152U — lower, ≤ -4.2
- A3U U53A — higher, -1.77
- A3C U4G G58C C93U C149U — lower, -3.55
- A3G G46C C54A U146C — lower, -3.68
- A3U C76A C87U A113C U130A — lower, ≤ -4.2
- A3G A16G A24C A49G G80C — lower, ≤ -4.2
- A3G A49C C51U G59C C95U C131G — lower, ≤ -4.2
- A3C U13G A23U C87U A91U C96U — lower, ≤ -4.2
- U4A A12U G80U G81U G92C — higher, -0.513
- A3G A12C G62U G70C C79G G81A G84A A147C — lower, ≤ -4.2
- A3G G84C — higher, -1.98
- A3U A20C A26U C57G C108U — lower, ≤ -4.2
- U4A U9C C27G U55A G70C C85A U127G A142U — lower, ≤ -4.2
- A3C U31G C51U A60C A122C G140A — lower, ≤ -4.2
- A3C G86A C125U — lower, -2.79
- A3U A29G A49C G92A G124U G140A — lower, ≤ -4.2
- A3U U13G A20U G74C — lower, ≤ -4.2
- U4A C54U U56A C79G C85U C103G C116U G143C — lower, ≤ -4.2
- A3G U56C C87A G92C — within 0.2 log units, -2.12
- A3C U56G C93U C114G U134A U148C — lower, ≤ -4.2
- U4A A12C U55A G84U — within 0.2 log units, -2.4
- A3G C32G C35U A49C G50C C85A C103U C118G — lower, ≤ -4.2
- A3U C5A A30U A39U A49U C99U G124A — lower, ≤ -4.2
- U4A C18U G67A C93G G124A — lower, ≤ -4.2
- A3G C27U G86A — lower, -3.94
- A3G C8U G25C U45G U55G G81C C95U C114U G117U A120G A122G — lower, ≤ -4.2
- U4A A37C U61A A66G G133U U144A — lower, ≤ -4.2
- U4A U6A A28U A30G U44A G59C A60G C87U A89U A97C A107U — lower, ≤ -4.2
- A3U A17C G94C — higher, -0.825
- A3C U13G G62A A66C U145A — lower, ≤ -4.2
- U4A A29G U61A G94U G126U G133U U151G — lower, ≤ -4.2
- A3U G70A A89C U139C U144A — lower, ≤ -4.2
- A3C U4G A49U U61C G70A G92U — lower, ≤ -4.2
- A3G A12G A29G C38U G42C G86U A138C — lower, ≤ -4.2
- A3G G50C A120G C129A — lower, ≤ -4.2
- A3U A52C G86U A119U G141U — lower, -3.78
- U4A C43G — lower, ≤ -4.2
- U4A A16U A17G A21U A24U G84A C114U A122U A142C — lower, ≤ -4.2
- A3G U4G C32U U56A G74A G81A A120G — higher, -0.184
- A3U C32G A49U — lower, ≤ -4.2
- A3U G88A A110G — lower, ≤ -4.2
- U4A G48C C75A C99A U135C A150C — lower, ≤ -4.2
- A3G A26U C72U — lower, ≤ -4.2
- A3U G84A — higher, -1.14
- A3U G84U — within 0.2 log units, -2.4
- A3U C8A A17G U56A G59A C85A A120G — lower, ≤ -4.2
- U4A C8A A20U A29C A40G G70C U101A A120U — lower, ≤ -4.2
- A3U G58C — higher, -0.0781
- A3U U7G C87A A91G C103U U135C — lower, ≤ -4.2
- A3U A20U A41G A49G A64U C108G — lower, ≤ -4.2
- A3U A12G A22C A37U A47G A97G — lower, -3.5
- A3U A23C — lower, -3.76
- U4A G34U U61G G70A C99U A107C U139G — lower, ≤ -4.2
- A3U A47C C105U A120C G124A — higher, -1.78
- A3G A52U C54U U77G A121G A122G A137G — lower, ≤ -4.2
- A3C U7G C14U A52G — lower, -3.28
- U4A A21C — higher, 0.483
- A3U G46A G50U U56A G74A G84U U130A U144C C149U — lower, ≤ -4.2
- A3U G80U G94U U104G C108U G126C U148A — lower, ≤ -4.2
- A3U U53A U82C C87G C96U C125G — lower, ≤ -4.2
- A3G A113G C118G — lower, -3.65
- A3U A26G U61A G92A — lower, ≤ -4.2
- A3G A60C C93U U145G — lower, -2.53
